Results reported in patent US11912794B2, “Modulation of structured polypeptide specificity” (BicycleRD Limited, priority 2011, dated 2024).
Ends that are not written are not given here.

Target: T1, Biotinylated hPK (Homo sapiens, UniProt P03952)
T1 construct: IHPKA, from human plasma; purchased Innovative Research, Novi, MI, USA IHPKA; host or cells: human plasma
Test: Phage selections, abundance of sequences in selection outputs
Type: binding
Settings: for Frequency (relative abundance in the total selection outputs): randomised WPAR motif at positions 2, 3, 4 & 5 within the 06-34-03 sequence
Procedure: Glycerol stocks of phage libraries were diluted to OD600=0.1 in 500 ml 2YT/chloramphenicol (30 μg/ml) cultures and phage were produced at 30° C. over night (15-16 hrs). Phage were purified and chemically modified as described in Heinis, et al., Nat Chem Biol 2009, 5 (7), 502-7 Biotinylated hPK (3 μg) (IHPKA, from human plasma, Innovative Research, Novi, MI, USA) was incubated with 50 μl pre-washed magnetic streptavidin beads (Dynal, M-280 from Invitrogen, Paisley, UK) for 10 minutes at RT. […] Blocked beads were then mixed with the blocked chemically modified phage and incubated for 30 minutes on a rotating wheel at RT. Beads were washed 8 times with washing buffer containing 0.1% Tween 20 and twice with washing buffer before incubation with 100 μl of 50 mM glycine, pH 2.2 for 5 minutes. Eluted phage were transferred to 50 μl of 1 M Tris-Cl, pH 8 for neutralization, incubated with 30 ml TG1 cells at OD600=0.4 for 90 minutes at 37° C. and the cells were plated on large 2YT/chloramphenicol plates. One or two additional rounds of panning were performed using the same procedures. In the second round of selection, neutravidin-coated magnetic beads were used to prevent the enrichment of streptavidin-specific peptides. The neutravidin beads were prepared by reacting 0.8 mg neutravidin (Pierce, Rockford, IL, USA) with 0.5 ml tosyl-activated magnetic beads (Dynal, M-280 from Invitrogen, Paisley, UK) according to the supplier's instructions.
The WPAR (SEQ ID NO: 18) motif identified from Example 1 was analysed in the context of the 06-34-03 peptide, in order to identify alternatives or improvements to the WPAR (SEQ ID NO: 18) motif. A library was constructed where positions 1, 6, 7, 8, 9 &10 of 06-34-03 were fixed and positions 2, 3, 4 & 5 were randomised (see ‘Randomisation of peptide domains—Library construction’ in Methods above). Selections against human plasma Kallikrein were performed at a variety of stringencies (see Phage selections' in Methods above). All output sequences were identified and analysed for target binding (see ‘Randomisation of peptide domains—Assay of binding of individual clones’ in Methods above). Table 17 lists each unique sequence, its relative abundance in the selection output (frequency), and a rank number according to target binding strength.

[1] = 2nd stringency from High (1st value of cell)
[2] = 3rd stringency from High (2nd value of cell)
[3] = 4th stringency from High (3rd value of cell)
[4] = 5th stringency from High (4th value of cell)

T1 sequence (P03952 20-638): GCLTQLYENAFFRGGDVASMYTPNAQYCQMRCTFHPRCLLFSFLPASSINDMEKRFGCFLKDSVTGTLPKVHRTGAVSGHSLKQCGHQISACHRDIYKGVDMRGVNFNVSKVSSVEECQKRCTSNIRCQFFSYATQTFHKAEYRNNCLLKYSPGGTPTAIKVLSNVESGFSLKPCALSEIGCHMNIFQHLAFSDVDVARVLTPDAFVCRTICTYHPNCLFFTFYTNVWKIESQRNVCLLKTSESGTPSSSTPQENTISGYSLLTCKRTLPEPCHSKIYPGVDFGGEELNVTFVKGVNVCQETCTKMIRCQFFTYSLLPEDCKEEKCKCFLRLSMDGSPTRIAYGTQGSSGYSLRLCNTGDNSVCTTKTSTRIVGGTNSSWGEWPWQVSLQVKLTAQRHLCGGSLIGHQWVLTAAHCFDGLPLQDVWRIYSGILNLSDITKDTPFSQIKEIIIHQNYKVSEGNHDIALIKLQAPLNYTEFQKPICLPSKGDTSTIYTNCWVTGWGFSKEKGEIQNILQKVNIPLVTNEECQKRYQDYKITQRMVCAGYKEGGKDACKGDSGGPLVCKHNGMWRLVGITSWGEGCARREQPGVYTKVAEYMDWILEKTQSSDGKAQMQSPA

Substance | Frequency (relative abundance in the total selection outputs) | other results
FPFR: phage clone: FPFR at positions 2-5 within the 06-34-03 sequence, TBMB-cyclised (also: TBMB-cyclised within the 06-34-03 context, the cysteines lie outside this motif) |  | Relative abundance of motif in selection output [1]: 19%; Relative abundance of motif in selection output [2]: 9%; Relative abundance of motif in selection output [3]: 4%; Relative abundance of motif in selection output [4]: 13%; Relative abundance of motif in selection output (stringency High): 7%; Relative abundance of motif in selection output (stringency LOW): 11%
FPYR: phage clone: FPYR at positions 2-5 within the 06-34-03 sequence, TBMB-cyclised (also: TBMB-cyclised within the 06-34-03 context, the cysteines lie outside this motif) |  | Relative abundance of motif in selection output [1]: 3%; Relative abundance of motif in selection output [2]: 3%; Relative abundance of motif in selection output [3]: 7%; Relative abundance of motif in selection output [4]: 16%; Relative abundance of motif in selection output (stringency High): 7%; Relative abundance of motif in selection output (stringency LOW): 4%
SEQ ID NO: 73 (CSWPARCTHQDLC; Synthetic sequence Kallikrein binder identified from selections using a randomised WPAR motif at positions 2, 3, 4 & 5 within the 06-34-03 sequence of PCT/EP2012/069898 (SEQ ID NO 58)) | 24 | 
SEQ ID NO: 74 (CSWPSRCTHQDLC; Synthetic sequence Kallikrein binder identified from selections using a randomised WPAR motif at positions 2, 3, 4 & 5 within the 06-34-03 sequence of PCT/EP2012/069898 (SEQ ID NO 58)) | 51 | 
SEQ ID NO: 76 (CSWLARCTHQDLC; Synthetic sequence Kallikrein binder identified from selections using a randomised WPAR motif at positions 2, 3, 4 & 5 within the 06-34-03 sequence of PCT/EP2012/069898 (SEQ ID NO 58)) | 8 | 
SEQ ID NO: 77 (CSFPYRCTHQDLC; Synthetic sequence Kallikrein binder identified from selections using a randomised WPAR motif at positions 2, 3, 4 & 5 within the 06-34-03 sequence of PCT/EP2012/069898 (SEQ ID NO 58)) | 12 | 
SEQ ID NO: 78 (CSFPFKCTHQDLC; Synthetic sequence Kallikrein binder identified from selections using a randomised WPAR motif at positions 2, 3, 4 & 5 within the 06-34-03 sequence of PCT/EP2012/069898 (SEQ ID NO 58)) | 4 | 
SEQ ID NO: 79 (CSWAARCTHQDLC; Synthetic sequence Kallikrein binder identified from selections using a randomised WPAR motif at positions 2, 3, 4 & 5 within the 06-34-03 sequence of PCT/EP2012/069898 (SEQ ID NO 58)) | 1 | 
SEQ ID NO: 80 (CSHPYRCTHQDLC; Synthetic sequence Kallikrein binder identified from selections using a randomised WPAR motif at positions 2, 3, 4 & 5 within the 06-34-03 sequence of PCT/EP2012/069898 (SEQ ID NO 58)) | 2 | 
SEQ ID NO: 81 (CSHPFRCTHQDLC; Synthetic sequence Kallikrein binder identified from selections using a randomised WPAR motif at positions 2, 3, 4 & 5 within the 06-34-03 sequence of PCT/EP2012/069898 (SEQ ID NO 58)) | 1 | 
SEQ ID NO: 82 (CSWPYRCTHQDLC; Synthetic sequence Kallikrein binder identified from selections using a randomised WPAR motif at positions 2, 3, 4 & 5 within the 06-34-03 sequence of PCT/EP2012/069898 (SEQ ID NO 58)) | 3 | 
SEQ ID NO: 83 (CRFPFKCTHQDLC; Synthetic sequence Kallikrein binder identified from selections using a randomised WPAR motif at positions 2, 3, 4 & 5 within the 06-34-03 sequence of PCT/EP2012/069898 (SEQ ID NO 58)) | 1 | 
SEQ ID NO: 86 (CSWPFRCTHQDLC; Synthetic sequence Kallikrein binder identified from selections using a randomised WPAR motif at positions 2, 3, 4 & 5 within the 06-34-03 sequence of PCT/EP2012/069898 (SEQ ID NO 58)) | 7 | 
SEQ ID NO: 87 (CSFPIRCTHQDLC; Synthetic sequence Kallikrein binder identified from selections using a randomised WPAR motif at positions 2, 3, 4 & 5 within the 06-34-03 sequence of PCT/EP2012/069898 (SEQ ID NO 58)) | 1 | 
SEQ ID NO: 90 (CSYPIRCTHQDLC; Synthetic sequence Kallikrein binder identified from selections using a randomised WPAR motif at positions 2, 3, 4 & 5 within the 06-34-03 sequence of PCT/EP2012/069898 (SEQ ID NO 58)) | 2 | 
SEQ ID NO: 91 (CSWSARCTHQDLC; Synthetic sequence Kallikrein binder identified from selections using a randomised WPAR motif at positions 2, 3, 4 & 5 within the 06-34-03 sequence of PCT/EP2012/069898 (SEQ ID NO 58)) | 10 | 
SEQ ID NO: 93 (CSYPFRCTHQDLC; Synthetic sequence Kallikrein binder identified from selections using a randomised WPAR motif at positions 2, 3, 4 & 5 within the 06-34-03 sequence of PCT/EP2012/069898 (SEQ ID NO 58)) | 1 | 
SEQ ID NO: 94 (CSFPYKCTHQDLC; Synthetic sequence Kallikrein binder identified from selections using a randomised WPAR motif at positions 2, 3, 4 & 5 within the 06-34-03 sequence of PCT/EP2012/069898 (SEQ ID NO 58)) | 1 | 
SEQ ID NO: 95 (CSFPWRCTHQDLC; Synthetic sequence Kallikrein binder identified from selections using a randomised WPAR motif at positions 2, 3, 4 & 5 within the 06-34-03 sequence of PCT/EP2012/069898 (SEQ ID NO 58)) | 1 | 
SEQ ID NO: 96 (CSWHARCTHQDLC; Synthetic sequence Kallikrein binder identified from selections using a randomised WPAR motif at positions 2, 3, 4 & 5 within the 06-34-03 sequence of PCT/EP2012/069898 (SEQ ID NO 58)) | 1 | 
SEQ ID NO: 98 (CSYPYRCTHQDLC; Synthetic sequence Kallikrein binder identified from selections using a randomised WPAR motif at positions 2, 3, 4 & 5 within the 06-34-03 sequence of PCT/EP2012/069898 (SEQ ID NO 58)) | 2 | 
SEQ ID NO: 99 (CSWWARCTHQDLC; Synthetic sequence Kallikrein binder identified from selections using a randomised WPAR motif at positions 2, 3, 4 & 5 within the 06-34-03 sequence of PCT/EP2012/069898 (SEQ ID NO 58)) | 1 | 
